# Where two headings read alike, the source gives them in different places.
# T1: 4H656-AA
# T1 chain: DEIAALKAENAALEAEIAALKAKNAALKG
# T2: 4H675-AA
# T2 chain: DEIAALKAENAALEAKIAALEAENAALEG
# T3: 4H971-AA
# T3 chain: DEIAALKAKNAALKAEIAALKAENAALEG
# T4: 4H478-AA
# T4 chain: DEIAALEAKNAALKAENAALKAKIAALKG
# T5: 4H497-AA
# T5 chain: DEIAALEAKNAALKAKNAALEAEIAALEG
# T6: 4H3844-AA
# T6 chain: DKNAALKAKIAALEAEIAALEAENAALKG
# T7: 4H3921-AA
# T7 chain: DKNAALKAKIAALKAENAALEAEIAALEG
# T8: 4H429-AA
# T8 chain: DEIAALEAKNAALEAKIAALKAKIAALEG
# T9: 4H454-AA
# T9 chain: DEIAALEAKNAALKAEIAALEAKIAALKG
# T10: 4H48-AA
# T10 chain: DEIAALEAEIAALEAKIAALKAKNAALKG
# T11: 4H566-AA
# T11 chain: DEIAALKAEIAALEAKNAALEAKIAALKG
# T12: 4H605-AA
# T12 chain: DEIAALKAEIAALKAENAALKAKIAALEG
# T13: 4H678-AA
# T13 chain: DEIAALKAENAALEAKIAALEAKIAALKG
# T14: 4H717-AA
# T14 chain: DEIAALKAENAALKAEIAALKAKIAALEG
# T15: 4H780-AA
# T15 chain: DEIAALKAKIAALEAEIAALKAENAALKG
# T16: 4H794-AA
# T16 chain: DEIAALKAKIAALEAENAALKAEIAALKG
# T17: 4H881-AA
# T17 chain: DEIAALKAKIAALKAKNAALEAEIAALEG
# T18: 4H906-AA
# T18 chain: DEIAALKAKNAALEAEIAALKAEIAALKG
# T19: 4H993-AA
# T19 chain: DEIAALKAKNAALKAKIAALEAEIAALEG
# T20: 4H697-AA
# T20 chain: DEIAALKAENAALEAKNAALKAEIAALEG
# T21: 4H982-AA
# T21 chain: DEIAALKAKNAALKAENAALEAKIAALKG
# T22: 4H906-bH
# T22 chain: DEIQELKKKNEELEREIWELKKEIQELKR
# Columns and labels:
# 4H656-AA = target: T1, 4H656-AA; test: two-hybrid library CCmax;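 also: natural log of median RNA to DNA barcode read ratio; higher means stronger binding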
# 4H675-AA = target: T2, 4H675-AA; test: two-hybrid library CCmax;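 also: natural log of median RNA to DNA barcode read ratio; higher means stronger binding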
# 4H971-AA = target: T3, 4H971-AA; test: two-hybrid library CCmax; settings: mean of both orientations;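 also: natural log of median RNA to DNA barcode read ratio; higher means stronger binding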
# 4H478-AA = target: T4, 4H478-AA; test: two-hybrid library CCmax;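 also: natural log of median RNA to DNA barcode read ratio; higher means stronger binding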
# 4H497-AA = target: T5, 4H497-AA; test: two-hybrid library CCmax; settings: mean of both orientations;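 also: natural log of median RNA to DNA barcode read ratio; higher means stronger binding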
# 4H3844-AA = target: T6, 4H3844-AA; test: two-hybrid library CCmax;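 also: natural log of median RNA to DNA barcode read ratio; higher means stronger binding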
# 4H3921-AA = target: T7, 4H3921-AA; test: two-hybrid library CCmax; settings: mean of both orientations
# 4H429-AA = target: T8, 4H429-AA; test: two-hybrid library CCmax; settings: mean of both orientations
# 4H454-AA = target: T9, 4H454-AA; test: two-hybrid library CCmax; settings: mean of both orientations
# 4H48-AA = target: T10, 4H48-AA; test: two-hybrid library CCmax; settings: mean of both orientations
# 4H566-AA = target: T11, 4H566-AA; test: two-hybrid library CCmax; settings: mean of both orientations
# 4H605-AA = target: T12, 4H605-AA; test: two-hybrid library CCmax; settings: mean of both orientations
# 4H678-AA = target: T13, 4H678-AA; test: two-hybrid library CCmax; settings: mean of both orientations
# 4H717-AA = target: T14, 4H717-AA; test: two-hybrid library CCmax; settings: mean of both orientations
# 4H780-AA = target: T15, 4H780-AA; test: two-hybrid library CCmax; settings: mean of both orientations
# 4H794-AA = target: T16, 4H794-AA; test: two-hybrid library CCmax; settings: mean of both orientations
# 4H881-AA = target: T17, 4H881-AA; test: two-hybrid library CCmax; settings: mean of both orientations
# 4H906-AA = target: T18, 4H906-AA; test: two-hybrid library CCmax; settings: mean of both orientations
# 4H993-AA = target: T19, 4H993-AA; test: two-hybrid library CCmax; settings: mean of both orientations
# 4H697-AA = target: T20, 4H697-AA; test: two-hybrid library CCmax
# 4H982-AA = target: T21, 4H982-AA; test: two-hybrid library CCmax
# 4H906-bH = target: T22, 4H906-bH; test: two-hybrid library CCNG1
binder,measurement,setting,value
DEIAALKAENAALEAEIAALKAKNAALKG [4H656-AA],interaction score,4H656-AA,0.334
same,interaction score,4H675-AA; mean of both orientations,0.797
same,interaction score,4H971-AA,1.93
DEIAALEAKNAALKAENAALKAKIAALKG [4H478-AA],interaction score,4H478-AA,0.99
same,interaction score,4H497-AA,-0.909
same,interaction score,4H656-AA; mean of both orientations,-0.144
same,interaction score,4H675-AA,-1.76
same,interaction score,4H971-AA,-1.54
DKNAALKAKIAALEAEIAALEAENAALKG [4H3844-AA],interaction score,4H3844-AA,0.661
same,interaction score,4H3921-AA,-1.65
same,interaction score,4H429-AA,-0.665
same,interaction score,4H454-AA,-0.212
same,interaction score,4H48-AA,1.16
same,interaction score,4H566-AA,-1.77
same,interaction score,4H605-AA,-1.48
same,interaction score,4H656-AA,-1.07
same,interaction score,4H678-AA,0.663
same,interaction score,4H717-AA,-1.65
same,interaction score,4H780-AA,0.995
same,interaction score,4H794-AA,-1.33
same,interaction score,4H881-AA,-0.992
same,interaction score,4H906-AA,-1.43
same,interaction score,4H993-AA,-1.76
DEIAALKAENAALEAKNAALKAEIAALEG [4H697-AA],interaction score,4H697-AA,-1.15
same,interaction score,4H982-AA,2.27
DEIAALKAENAALEAKIAALEAENAALEG [4H675-AA],interaction score,4H675-AA,-1.72
same,interaction score,4H971-AA,0.0439
DEIAALKAKNAALKAENAALEAKIAALKG [4H982-AA],interaction score,4H982-AA,0.123
DEIQELKKKNEELEREIWELKKEIQELKR [4H906-bH],interaction score,4H906-bH,0.905
